The record followed here is publication PMC9886945.

By stoichiometry N is commonly meant the number of molecules, sites or subunits per partner or assembly.

In assay [1] the target is Mycobacterium tuberculosis RNA polymerase core (M. tuberculosis) (UniProt P9WGZ1). The assay can be described thus: SEC. (SEC sorts molecules by how far they enter the pores of the column.)
Assay [2] has as its target Mycobacterium tuberculosis RNA polymerase holoenzyme with the σ^B subunit (M. tuberculosis) (UniProt P9WGZ1). The assay can be described thus: cryo-EM structure.
Assay [3] has the same target. As to the kind of experiment: SEC.
The target is the same in assay [4]. The assay can be described thus: negative stain EM.

Values joined by “and” are separate entries in the source; they are usually repeats but may differ in a detail not shown here. Equal entries are not always repeated.

“Mycobacterium tuberculosis RNA polymerase core (from UniProt P9WGZ1;P9WGY9;P9WGY7;P9WGY5) (complex)”: the stoichiometry N in assay [1] amounted to 2.

On to “Mycobacterium tuberculosis RNA polymerase holoenzyme with the σ^B subunit, P9WGZ1;P9WGY9;P9WGY7;P9WGY5;P9WGI5”, for which, in assay [2], the percent of oligomer particles that are octamers amounted to 80%; the percent of oligomer particles that are tetramers was found to be 20%; the stoichiometry N was 8 and 4. In assay [3], this substance displayed a stoichiometry N of 8. In assay [4], this substance registered an RNAP concentration from which octamers form of 0.1 µM, a percent of molecules in oligomers after 24 h at 4 °C of 86% and a stoichiometry N of 8.
